Binding data for 1 sequence are collected here from paper PMC9561280.

This data set addresses T1, Fur (Pseudomonas aeruginosa PA14) (UniProt Q03456).
T1 sequence: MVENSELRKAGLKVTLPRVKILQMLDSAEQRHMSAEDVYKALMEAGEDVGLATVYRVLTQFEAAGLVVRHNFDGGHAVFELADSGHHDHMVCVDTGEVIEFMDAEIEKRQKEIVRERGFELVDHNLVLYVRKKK
In words: EMSA. The following applies: 25 mM Tris-HCl pH 7.5, 150 mM NaCl, 20 ul, 4 C 30 min; 10% PAGE in 0.5x TBE; no metal stated. On the technique in general: Mobility shift assays separate free from complexed probe on a gel.

On to “CTGGTCGAGTCGATGATGGTGGCCGGGCGCTGAGGCCGGGTTTCCCTCTATAAAACGCCAGCGCTCGTCGCTGGCGTTTTCGTTTCCGCCTGTTCAATTGTCCGCCTCTATGGGGACCATGCTTGTCTTTTGCCAAGAAGAAAACAATAATCAATCTCATTATCGTCTGGTGAGGTTGCC (double strand) [PfagA (Ppa4471)]”, for which the binding entry is recorded as “binds”.
